Source: the supplement of paper PMC10567573

B1: BRF1 (parent)
chain: CTACGSVLEDNIIVSEVQFVESSG

Variants of: B1
Experiment: protein stability index of a GFP-peptide fusion (GPS, HEK-293T) (PSI 1-6); higher = more stable
Conditions: c terminus: a fixed tail appended
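Note: lentivirally expressed fusions sorted by FACS into six bins by GFP to DsRed ratio, PSI derived from sequencing read proportions per bin multiplied by bin number.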

Row | Variant | protein stability index
1 | CTACGSVLEDNIIVSEVQFVEFSG | 2.32
2 | CTACGSVLEDNIIVSEVQFVERSG | 2.18
3 | CTACGSVLEDNIIVSEVQFVEDSG | 3.7
4 | CTACGSVLEDNIIVSEVQFVEASG | 3.73
5 | CTACGSVLEDNIIVSEVQFVEESG | 3.83
6 | CTACGSVLEDNIIVSEVQFVELSG | 2.09
7 | CTACGSVLEDNIIVSEVQFVEQSG | 3.38
8 | CTAAGSVLEDNIIVSEVQFVESSG | 3.49
9 | CTATGSVLEDNIIVSEVQFVESSG | 3.21
10 | CNACGSVLEDNIIVSEVQFVESSG | 3.02
11 | CLACGSVLEDNIIVSEVQFVESSG | 2.75
12 | CEACGSVLEDNIIVSEVQFVESSG | 3.25
13 | CKACGSVLEDNIIVSEVQFVESSG | 3.48
14 | CRACGSVLEDNIIVSEVQFVESSG | 3.17
15 | CPACGSVLEDNIIVSEVQFVESSG | 2.72
16 | CFACGSVLEDNIIVSEVQFVESSG | 2.12
17 | CVACGSVLEDNIIVSEVQFVESSG | 1.86
18 | CIACGSVLEDNIIVSEVQFVESSG | 2.52
19 | CWACGSVLEDNIIVSEVQFVESSG | 2.54
20 | CDACGSVLEDNIIVSEVQFVESSG | 3.42
21 | CTACGSVLEDNISVSEVQFVESSG | 4.05
22 | CTACGSVLEDNICVSEVQFVESSG | 4.75
23 | CTACGSVLEDNIMVSEVQFVESSG | 3.97
24 | CTACGSVLEDNIEVSEVQFVESSG | 4.11

Row | Variant | protein stability index
25 | CTACGSVLEDNIQVSEVQFVESSG | 4.01
26 | CTACGSVLEDNIKVSEVQFVESSG | 3.89
27 | CTACGSVLEDNILVSEVQFVESSG | 2.79
28 | CTACGSVLEDNIFVSEVQFVESSG | 3.08
29 | CTACGSVLEDNIHVSEVQFVESSG | 3.84
30 | CTACFSVLEDNIIVSEVQFVESSG | 2.41
31 | CTACQSVLEDNIIVSEVQFVESSG | 2.92
32 | CTACLSVLEDNIIVSEVQFVESSG | 1.75
33 | CTACPSVLEDNIIVSEVQFVESSG | 3.67
34 | CTACWSVLEDNIIVSEVQFVESSG | 2.27
35 | CTACISVLEDNIIVSEVQFVESSG | 2.76
36 | CTACESVLEDNIIVSEVQFVESSG | 3.21
37 | CTACVSVLEDNIIVSEVQFVESSG | 1.33
38 | ETACGSVLEDNIIVSEVQFVESSG | 4.86
39 | LTACGSVLEDNIIVSEVQFVESSG | 3.56
40 | RTACGSVLEDNIIVSEVQFVESSG | 3.83
41 | ATACGSVLEDNIIVSEVQFVESSG | 3.88
42 | HTACGSVLEDNIIVSEVQFVESSG | 3.6
43 | ITACGSVLEDNIIVSEVQFVESSG | 1.46
44 | MTACGSVLEDNIIVSEVQFVESSG | 3.6
45 | CTACGSVLEDNPIVSEVQFVESSG | 3.55
46 | CTACGSVLEDNRIVSEVQFVESSG | 4.29
47 | CTACGSVLEDNKIVSEVQFVESSG | 4.16
48 | CTACGSVLEDNCIVSEVQFVESSG | 3.53

Row | Variant | protein stability index
49 | CTACGSVLEDNWIVSEVQFVESSG | 2.39
50 | CTACGSVLEDNSIVSEVQFVESSG | 3.95
51 | CTACGSVLEDNGIVSEVQFVESSG | 3.73
52 | CTACGSVLEDNFIVSEVQFVESSG | 2.23
53 | CTACGSVLEDNYIVSEVQFVESSG | 3.15
54 | CTACGSVLEDNTIVSEVQFVESSG | 3.88
55 | CTACGSVLEDNMIVSEVQFVESSG | 3.13
56 | CTACGSVLEDNIIVSEVQFCESSG | 2.21
57 | CTACGSVLEDNIIVSEVQFPESSG | 3.48
58 | CTACGSVLEDNIIVSEVQFLESSG | 3.97
59 | CTACGSVLEDNIIVSEVQFGESSG | 3.6
60 | CTACGSVLEDNIIVSEVQFKESSG | 3.44
61 | CTACGSVLEDNIIVSEVQFYESSG | 2.44
62 | CTACGSVLEDNIIVSEVQFIESSG | 3.11
63 | CTACGSVLEDNIIVSEIQFVESSG | 1.92
64 | CTACGSVLEDNIIVSEGQFVESSG | 4.45
65 | CTACGSVLEDNIIVSEFQFVESSG | 2.56
66 | CTACGSVLEDNIIVSEPQFVESSG | 3.71
67 | CTACGSVLEDNIIVSETQFVESSG | 4.09
68 | CTACGSVLEDNIIVSEEQFVESSG | 3.88
69 | CTACGSVLVDNIIVSEVQFVESSG | 2.26
70 | CTACGSVLRDNIIVSEVQFVESSG | 3.02
71 | CTACGSVLQDNIIVSEVQFVESSG | 2.99
72 | CTACGSVLYDNIIVSEVQFVESSG | 2

Row | Variant | protein stability index
73 | CTACGSVLDDNIIVSEVQFVESSG | 3.55
74 | CTACGSVLSDNIIVSEVQFVESSG | 2.85
75 | CTACGSVLFDNIIVSEVQFVESSG | 2.67
76 | CTACGSVLKDNIIVSEVQFVESSG | 3.55
77 | CTACGSVLHDNIIVSEVQFVESSG | 2.32
78 | CTACGSVLEDNIIWSEVQFVESSG | 2.14
79 | CTACGSVLEDNIIASEVQFVESSG | 3.63
80 | CTACGSVLEDNIILSEVQFVESSG | 2.78
81 | CTACGSVLEDNIIYSEVQFVESSG | 2.73
82 | CTACGSVLEDNIINSEVQFVESSG | 4.23
83 | CTACGSVLEDNIIDSEVQFVESSG | 4.33
84 | CTACGSVLEDNIIQSEVQFVESSG | 4.25
85 | CTACGSVLEDNIIRSEVQFVESSG | 3.89
86 | CTACGSVLEDNIICSEVQFVESSG | 2.64
87 | CTACGSVLEDNIISSEVQFVESSG | 3.49
88 | CTACGSVLEDNIIVSEVQFVESYG | 2.51
89 | CTACGSVLEDNIIVSEVQFVESMG | 2.81
90 | CTACGSVLEDNIIVSEVQFVESFG | 2.42
91 | CTACGSVLEDNIIVSEVQFVESEG | 2.91
92 | CTACGSVLEDNIIVSEVQFVESTG | 3.17
93 | CTACGSVLEDNIIVSEVQFVESAG | 3.14
94 | CTACGGVLEDNIIVSEVQFVESSG | 3.35
95 | CTACGDVLEDNIIVSEVQFVESSG | 2.94
96 | CTACGKVLEDNIIVSEVQFVESSG | 3.06

Row | Variant | protein stability index
97 | CTACGNVLEDNIIVSEVQFVESSG | 2.5
98 | CTACGEVLEDNIIVSEVQFVESSG | 2.2
99 | CTACGCVLEDNIIVSEVQFVESSG | 2.38
100 | CTACGAVLEDNIIVSEVQFVESSG | 2.73
101 | CTACGYVLEDNIIVSEVQFVESSG | 1.59
102 | CTACGSVLEDNIIVSEVQFVESSM | 3.13
103 | CTACGSVLEDNIIVSEVQFVESSK | 3.25
104 | CTACGSVLEDNIIVSEVQFVESSI | 3.06
105 | CTACGSVLEDNIIVSEVQFVESSY | 2.89
106 | CTACGSVLEDNIIVSEVQFVESSC | 3.09
107 | CTACGSVLEDNIIVSEVQFVESSQ | 2.95
108 | CTACGSVLEYNIIVSEVQFVESSG | 2.24
109 | CTACGSVLEWNIIVSEVQFVESSG | 1.22
110 | CTACGSVLETNIIVSEVQFVESSG | 1.79
111 | CTACGSVLEKNIIVSEVQFVESSG | 3.43
112 | CTACGSVLESNIIVSEVQFVESSG | 1.34
113 | CTACGSVLEINIIVSEVQFVESSG | 3.2
114 | CTACGSVLEDTIIVSEVQFVESSG | 2.44
115 | CTACGSVLEDQIIVSEVQFVESSG | 2.6
116 | CTACGSVLEDYIIVSEVQFVESSG | 2.06
117 | CTACGSVLEDFIIVSEVQFVESSG | 1.89
118 | CTACGSVLEDKIIVSEVQFVESSG | 4.01
119 | CTACGSVLEDHIIVSEVQFVESSG | 2.12
120 | CTACGSVLEDEIIVSEVQFVESSG | 2.19

Row | Variant | protein stability index
121 | CTACGSVFEDNIIVSEVQFVESSG | 2.37
122 | CTACGSVMEDNIIVSEVQFVESSG | 3.79
123 | CTACGSVQEDNIIVSEVQFVESSG | 3.63
124 | CTACGSVPEDNIIVSEVQFVESSG | 3.9
125 | CTACGSVVEDNIIVSEVQFVESSG | 3.24
126 | CTACGSVKEDNIIVSEVQFVESSG | 3.54
127 | CTACGSVNEDNIIVSEVQFVESSG | 4.42
128 | CTACGSVLEDNIIVSEVQRVESSG | 4.42
129 | CTACGSVLEDNIIVSEVQSVESSG | 4.59
130 | CTACGSVLEDNIIVSEVQHVESSG | 4.36
131 | CTACGSVLEDNIIVSEVQWVESSG | 2.88
132 | CTACGSVLEDNIIVSEVQMVESSG | 3.63
133 | CTACGSVLEDNIIVSEVQCVESSG | 2.43
134 | CTACGSVLEDNIIVSEVQEVESSG | 4.27
135 | CTACGSVLEDNIIVSEVQNVESSG | 4.33
136 | CTACGSVLEDNIIVSEVQVVESSG | 3.11
137 | CTVCGSVLEDNIIVSEVQFVESSG | 3.22
138 | CTMCGSVLEDNIIVSEVQFVESSG | 2.87
139 | CTKCGSVLEDNIIVSEVQFVESSG | 4.04
140 | CTDCGSVLEDNIIVSEVQFVESSG | 2.28
141 | CTPCGSVLEDNIIVSEVQFVESSG | 3.47
142 | CTGCGSVLEDNIIVSEVQFVESSG | 2.37
143 | CTECGSVLEDNIIVSEVQFVESSG | 3.6
144 | CTTCGSVLEDNIIVSEVQFVESSG | 3.07

Row | Variant | protein stability index
145 | CTACGSVLEDNIIVSEVQFVVSSG | 2.82
146 | CTACGSVLEDNIIVSEVQFVFSSG | 1.87
147 | CTACGSVLEDNIIVSEVQFVGSSG | 3.58
148 | CTACGSVLEDNIIVSEVQFVRSSG | 3.53
149 | CTACGSVLEDNIIVSEVQFVPSSG | 3.38
150 | CTACGSVLEDNIIVSEVQFVASSG | 2.58
151 | CTACGSVLEDNIIVSEVQFVKSSG | 2.94
152 | CTACGSVLEDNIIVSEVQFVYSSG | 1.77
153 | CTACGSVLEDNIIVSEVQFVNSSG | 3.51
154 | CTACGSVLEDNIIVSEVQFVQSSG | 3.02
155 | CTACGSVLEDNIIVSEVQFVSSSG | 2.54
156 | CTACGSDLEDNIIVSEVQFVESSG | 3.44
157 | CTACGSWLEDNIIVSEVQFVESSG | 2.53
158 | CTACGSQLEDNIIVSEVQFVESSG | 2.96
159 | CTACGSFLEDNIIVSEVQFVESSG | 2.33
160 | CTACGSRLEDNIIVSEVQFVESSG | 3.22
161 | CTACGSILEDNIIVSEVQFVESSG | 2.56
162 | CTACGSHLEDNIIVSEVQFVESSG | 2.58
163 | CTACGSMLEDNIIVSEVQFVESSG | 2.72
164 | CTACGSNLEDNIIVSEVQFVESSG | 2.94
165 | CTACGSGLEDNIIVSEVQFVESSG | 2.8
166 | CTACGSVLEDNIIVSEVAFVESSG | 3.26
167 | CTACGSVLEDNIIVSEVTFVESSG | 2.31
168 | CTACGSVLEDNIIVSEVGFVESSG | 3.47

Row | Variant | protein stability index
169 | CTACGSVLEDNIIVSEVLFVESSG | 2.4
170 | CTACGSVLEDNIIVSEVPFVESSG | 3.1
171 | CTACGSVLEDNIIVSEVDFVESSG | 2.89
172 | CTACGSVLEDNIIVSEVVFVESSG | 2.01
173 | CTACGSVLEDNIIVSPVQFVESSG | 3.33
174 | CTACGSVLEDNIIVSYVQFVESSG | 3.77
175 | CTACGSVLEDNIIVSHVQFVESSG | 3.22
176 | CTACGSVLEDNIIVSSVQFVESSG | 2.38
177 | CTACGSVLEDNIIVSCVQFVESSG | 3.61
178 | CTACGSVLEDNIIVSWVQFVESSG | 1.9
179 | CTACGSVLEDNIIVSKVQFVESSG | 3.42
180 | CTACGSVLEDNIIVSRVQFVESSG | 3.09
181 | CTACGSVLEDNIIVSVVQFVESSG | 2.58
182 | CTACGSVLEDNIIVREVQFVESSG | 3.67
183 | CTACGSVLEDNIIVHEVQFVESSG | 2.71
184 | CTACGSVLEDNIIVAEVQFVESSG | 3.65
185 | CTACGSVLEDNIIVGEVQFVESSG | 2.92
186 | CTACGSVLEDNIIVQEVQFVESSG | 3.11
187 | CTACGSVLEDNIIVPEVQFVESSG | 3.15
188 | CTACGSVLEDNIIVKEVQFVESSG | 3.19
